Measured values as given in doi:10.1101/2022.01.11.475808, “Hypoxia Dynamically Regulates DBC1 Ubiquitination and Stability by SIAH2 and OTUD5 in Breast Cancer Progression” (bioRxiv, 2022).

Experiments:
[1] = target: T1, His-DBC1 (human, UniProt Q8N163 1-923); assay: pull-down; GST-SIAH2 and His-DBC1 proteins generated in E. coli, incubated in vitro overnight, then GST beads for 2 h at 4 °C; details: both partners purified
T1 construct: Deleted in Breast Cancer 1 (DBC1, CCAR2), human, bacterially expressed as His-DBC1; also called His-tagged DBC1; source: E. coli BL21, purified
T1 sequence (Q8N163 whole entry): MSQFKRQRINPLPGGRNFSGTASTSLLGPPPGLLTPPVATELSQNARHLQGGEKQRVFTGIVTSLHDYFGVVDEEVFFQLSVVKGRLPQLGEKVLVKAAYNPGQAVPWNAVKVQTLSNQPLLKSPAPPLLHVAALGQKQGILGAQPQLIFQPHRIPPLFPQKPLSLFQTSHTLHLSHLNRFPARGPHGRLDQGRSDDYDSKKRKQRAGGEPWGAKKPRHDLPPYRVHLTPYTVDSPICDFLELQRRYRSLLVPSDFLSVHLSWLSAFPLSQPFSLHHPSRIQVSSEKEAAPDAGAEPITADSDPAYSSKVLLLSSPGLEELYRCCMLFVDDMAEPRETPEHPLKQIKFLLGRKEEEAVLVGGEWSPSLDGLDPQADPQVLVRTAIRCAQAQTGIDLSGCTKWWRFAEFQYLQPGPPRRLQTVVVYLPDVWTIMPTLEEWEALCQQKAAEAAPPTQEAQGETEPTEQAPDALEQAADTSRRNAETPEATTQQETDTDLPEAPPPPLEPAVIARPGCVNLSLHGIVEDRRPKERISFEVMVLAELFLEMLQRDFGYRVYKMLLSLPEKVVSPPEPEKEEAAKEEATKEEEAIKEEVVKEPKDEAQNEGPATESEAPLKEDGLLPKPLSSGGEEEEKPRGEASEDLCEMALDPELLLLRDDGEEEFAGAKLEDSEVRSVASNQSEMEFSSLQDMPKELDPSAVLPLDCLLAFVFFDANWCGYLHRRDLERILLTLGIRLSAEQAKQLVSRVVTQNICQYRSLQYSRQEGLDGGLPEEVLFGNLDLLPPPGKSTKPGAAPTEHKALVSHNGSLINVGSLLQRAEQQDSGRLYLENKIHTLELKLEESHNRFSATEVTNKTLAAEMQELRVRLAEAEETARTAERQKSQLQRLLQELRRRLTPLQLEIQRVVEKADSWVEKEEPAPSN

[2] = target: T2, N-terminal half of His-DBC1 (1-461) (human, UniProt Q8N163 1-461); assay: as above; details: both partners purified
T2 construct: source: E. coli, bacterially expressed
T2 sequence (Q8N163 1-461): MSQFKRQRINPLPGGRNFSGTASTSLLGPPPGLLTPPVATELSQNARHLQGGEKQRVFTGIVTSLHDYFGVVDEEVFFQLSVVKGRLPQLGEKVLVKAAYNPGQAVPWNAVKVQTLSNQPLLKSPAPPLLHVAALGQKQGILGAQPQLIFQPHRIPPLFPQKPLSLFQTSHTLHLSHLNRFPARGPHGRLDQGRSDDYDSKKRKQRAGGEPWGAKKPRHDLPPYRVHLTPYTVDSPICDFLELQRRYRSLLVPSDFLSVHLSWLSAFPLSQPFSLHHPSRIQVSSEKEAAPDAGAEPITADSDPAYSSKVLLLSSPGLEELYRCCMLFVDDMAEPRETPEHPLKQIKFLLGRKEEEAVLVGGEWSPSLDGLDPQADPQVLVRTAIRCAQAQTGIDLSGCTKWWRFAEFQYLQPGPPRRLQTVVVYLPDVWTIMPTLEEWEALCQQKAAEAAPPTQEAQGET

- binding result [1]: binds
- binding result [2]: binds
B1: GST-SIAH2 (enzyme, human, UniProt O43255 1-324, looked up)
chain: MSRPSSTGPSANKPCSKQPPPQPQHTPSPAAPPAAATISAAGPGSSAVPAAAAVISGPGGGGGAGPVSPQHHELTSLFECPVCFDYVLPPILQCQAGHLVCNQCRQKLSCCPTCRGALTPSIRNLAMEKVASAVLFPCKYATTGCSLTLHHTEKPEHEDICEYRPYSCPCPGASCKWQGSLEAVMSHLMHAHKSITTLQGEDIVFLATDINLPGAVDWVMMQSCFGHHFMLVLEKQEKYEGHQQFFAIVLLIGTRKQAENFAYRLELNGNRRRLTWEATPRSIHDGVAAAIMNSDCLVFDTAIAHLFADNGNLGINVTISTCCP
notes: E3 ubiquitin ligase SIAH2, human, bacterially expressed as GST-SIAH2; also called purified glutathione S-transferase (GST) SIAH2; source: E. coli BL21, purified
